Laboratory results as given in patent US20140274782A1, “AFFINITY REAGENTS AND METHODS FOR DETECTION, PURIFICATION, AND PROTEOMIC ANALYSIS OF METHYLATED PROTEINS” (The Board of Trustees of the Leland Stanford Junior …, priority 2013, published 2014).
Blank lines part the entries; values can stand above or below the molecule they belong to.

Assays:
3×MBT domain of L3MBTL1 = assay: Triple SILAC pull-down, 3xMBT/3xMBTD355N ratio (cytoplasmic, nuclear and chromatin fractions of 293T cells); format: binding, human; conditions: SILAC ratio, pull-down 3xMBT vs 3xMBTD355N; for 3xMBT/D355N UNC Heavy: experiment with UNC0638 in heavy SILAC media; for 3xMBT/D355N UNC Light: experiment with UNC0638 in light SILAC media;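 as to all read-outs here: proteins quantified with MaxQuant, requiring at least two unique peptides and quantification in both label directions, normalized to the mean of proteins from a digested loading control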
G9a and GLP = target: T1, G9a and GLP (Homo sapiens, UniProt Q96KQ7+Q9H9B1); assay: Triple SILAC pull-down after UNC0638 treatment of 293T cells, DMSO/UNC0638 ratio of protein captured by 3×MBT; format: cell-based; set-up: cells were treated for 24 hours with UNC0638 at 2.5 μM or DMSO vehicle control; endogenous in cells; host or cells: HEK 293T; conditions: for Relative to UNC0638 UNC Heavy / Relative to UNC0638 UNC Light: SILAC ratio DMSO/UNC0638 of protein pulled down with 3xMBT; for Relative to UNC0638 UNC Heavy: UNC0638 in heavy SILAC media; for Relative to UNC0638 UNC Light: UNC0638 in light SILAC media; for Relative to UNC0638 Average: average of UNC Light and UNC Heavy experiments;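 as to all read-outs here: mass spectrometry (Q-Exactive) SILAC quantitation, DMSO/UNC0638 ratio computed after subtracting 3×MBTD355N mutant pull-down background, only proteins with at least twofold 3×MBT over mutant signal considered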
T1 sequence (Q96KQ7 2-1210 limits assumed): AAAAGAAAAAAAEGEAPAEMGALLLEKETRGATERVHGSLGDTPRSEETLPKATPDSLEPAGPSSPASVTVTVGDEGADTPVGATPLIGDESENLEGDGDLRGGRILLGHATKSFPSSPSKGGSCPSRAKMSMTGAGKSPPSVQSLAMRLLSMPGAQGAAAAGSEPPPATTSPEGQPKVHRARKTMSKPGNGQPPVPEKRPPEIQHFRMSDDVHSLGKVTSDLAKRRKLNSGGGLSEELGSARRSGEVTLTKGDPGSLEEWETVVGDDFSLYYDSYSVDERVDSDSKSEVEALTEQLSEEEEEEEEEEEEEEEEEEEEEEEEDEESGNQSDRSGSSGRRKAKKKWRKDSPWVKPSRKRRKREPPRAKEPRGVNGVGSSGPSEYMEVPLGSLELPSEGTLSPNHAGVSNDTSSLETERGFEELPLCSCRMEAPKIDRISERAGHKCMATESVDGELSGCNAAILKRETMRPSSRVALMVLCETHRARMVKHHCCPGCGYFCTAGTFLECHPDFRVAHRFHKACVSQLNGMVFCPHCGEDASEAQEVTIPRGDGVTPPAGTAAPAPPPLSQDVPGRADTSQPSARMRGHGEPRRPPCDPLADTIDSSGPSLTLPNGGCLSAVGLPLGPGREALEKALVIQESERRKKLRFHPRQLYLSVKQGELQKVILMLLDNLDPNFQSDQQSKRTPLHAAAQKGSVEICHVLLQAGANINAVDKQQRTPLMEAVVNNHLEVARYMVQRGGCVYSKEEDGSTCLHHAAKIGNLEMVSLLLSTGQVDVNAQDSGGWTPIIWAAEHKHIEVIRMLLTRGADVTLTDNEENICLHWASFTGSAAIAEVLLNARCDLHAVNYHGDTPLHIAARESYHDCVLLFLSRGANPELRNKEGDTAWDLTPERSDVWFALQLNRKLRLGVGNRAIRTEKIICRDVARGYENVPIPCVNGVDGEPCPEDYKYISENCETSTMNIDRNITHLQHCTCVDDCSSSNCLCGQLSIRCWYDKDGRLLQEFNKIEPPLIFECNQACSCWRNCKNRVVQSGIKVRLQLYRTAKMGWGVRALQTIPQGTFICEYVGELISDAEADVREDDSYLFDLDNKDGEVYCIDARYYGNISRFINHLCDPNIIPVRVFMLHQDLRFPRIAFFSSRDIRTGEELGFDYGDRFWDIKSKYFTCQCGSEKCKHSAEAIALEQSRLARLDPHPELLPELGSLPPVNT
T1 sequence (Q9H9B1 2-1298 limits assumed): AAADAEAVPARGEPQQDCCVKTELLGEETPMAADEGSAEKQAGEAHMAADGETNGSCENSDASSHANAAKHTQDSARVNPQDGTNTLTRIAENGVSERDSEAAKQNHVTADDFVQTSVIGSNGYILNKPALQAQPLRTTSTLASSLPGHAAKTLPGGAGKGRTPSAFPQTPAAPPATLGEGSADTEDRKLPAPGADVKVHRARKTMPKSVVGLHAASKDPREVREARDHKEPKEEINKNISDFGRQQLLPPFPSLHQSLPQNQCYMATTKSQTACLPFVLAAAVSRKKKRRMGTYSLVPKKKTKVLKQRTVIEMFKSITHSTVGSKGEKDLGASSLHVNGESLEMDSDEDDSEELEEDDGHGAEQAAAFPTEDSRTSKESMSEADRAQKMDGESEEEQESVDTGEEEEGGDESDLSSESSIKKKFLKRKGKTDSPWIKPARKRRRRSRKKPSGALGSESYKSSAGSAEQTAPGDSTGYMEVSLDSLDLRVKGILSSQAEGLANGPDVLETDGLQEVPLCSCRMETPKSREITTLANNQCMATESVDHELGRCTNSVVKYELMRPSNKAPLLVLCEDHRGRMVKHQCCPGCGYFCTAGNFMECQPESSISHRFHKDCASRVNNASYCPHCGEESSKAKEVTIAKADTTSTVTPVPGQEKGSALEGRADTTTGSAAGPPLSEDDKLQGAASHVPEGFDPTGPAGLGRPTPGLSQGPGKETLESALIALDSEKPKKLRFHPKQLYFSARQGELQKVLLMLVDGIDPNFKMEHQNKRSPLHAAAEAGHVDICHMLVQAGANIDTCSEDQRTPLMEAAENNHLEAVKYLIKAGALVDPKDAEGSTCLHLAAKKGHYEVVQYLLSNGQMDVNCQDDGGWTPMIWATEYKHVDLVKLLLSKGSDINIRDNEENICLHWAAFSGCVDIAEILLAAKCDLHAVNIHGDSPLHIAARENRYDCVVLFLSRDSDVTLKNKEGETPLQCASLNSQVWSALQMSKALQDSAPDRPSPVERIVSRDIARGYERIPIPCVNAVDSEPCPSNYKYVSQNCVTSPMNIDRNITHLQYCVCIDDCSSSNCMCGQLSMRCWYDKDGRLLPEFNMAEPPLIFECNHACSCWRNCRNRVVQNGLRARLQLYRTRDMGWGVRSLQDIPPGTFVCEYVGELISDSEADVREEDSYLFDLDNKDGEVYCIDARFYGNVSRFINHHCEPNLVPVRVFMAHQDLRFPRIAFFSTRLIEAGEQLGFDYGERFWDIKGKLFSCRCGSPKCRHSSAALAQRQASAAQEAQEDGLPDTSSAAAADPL

B1: PRPF40A (protein, UniProt O75400 1-957, looked up)
Pre-mRNA-processing factor 40 …: MRPGTGAERGGLMVSEMESHPPSQGPGDGERRLSGSSLCSGSWVSADGFLRRRPSMGHPGMHYAPMGMHPMGQRANMPPVPHGMMPQMMPPMGGPPMGQMPGMMSSVMPGMMMSHMSQASMQPALPPGVNSMDVAAGTASGAKSMWTEHKSPDGRTYYYNTETKQSTWEKPDDLKTPAEQLLSKCPWKEYKSDSGKPYYYNSQTKESRWAKPKELEDLEGYQNTIVAGSLITKSNLHAMIKAEESSKQEECTTTSTAPVPTTEIPTTMSTMAAAEAAAAVVAAAAAAAAAAAAANANASTSASNTVSGTVPVVPEPEVTSIVATVVDNENTVTISTEEQAQLTSTPAIQDQSVEVSSNTGEETSKQETVADFTPKKEEEESQPAKKTYTWNTKEEAKQAFKELLKEKRVPSNASWEQAMKMIINDPRYSALAKLSEKKQAFNAYKVQTEKEEKEEARSKYKEAKESFQRFLENHEKMTSTTRYKKAEQMFGEMEVWNAISERDRLEIYEDVLFFLSKKEKEQAKQLRKRNWEALKNILDNMANVTYSTTWSEAQQYLMDNPTFAEDEELQNMDKEDALICFEEHIRALEKEEEEEKQKSLLRERRRQRKNRESFQIFLDELHEHGQLHSMSSWMELYPTISSDIRFTNMLGQPGSTALDLFKFYVEDLKARYHDEKKIIKDILKDKGFVVEVNTTFEDFVAIISSTKRSTTLDAGNIKLAFNSLLEKAEAREREREKEEARKMKRKESAFKSMLKQAAPPIELDAVWEDIRERFVKEPAFEDITLESERKRIFKDFMHVLEHECQHHHSKNKKHSKKSKKHHRKRSRSRSGSDSDDDDSHSKKKRQRSESRSASEHSSSAESERSYKKSKKHKKKSKKRRHKSDSPESDAEREKDKKEKDRESEKDRTRQRSESKHKSPKKKTGKDSGNWDTSGSELSEGELEKRRRTLLEQLDDDQ
- 3xMBT/D355N UNC Heavy (3×MBT domain of L3MBTL1): 3.54 log base 2
- 3xMBT/D355N UNC Light (3×MBT domain of L3MBTL1): 2.13 log base 2
- Relative to UNC0638 UNC Heavy (G9a and GLP): 0.33 log base 2
- Relative to UNC0638 UNC Light (G9a and GLP): 0.24 log base 2
- Relative to UNC0638 Average (G9a and GLP): 0.29 log base 2

B2: CNBP (protein, UniProt P62633 2-177, looked up)
CCHC-type zinc finger nucleic …: SSNECFKCGRSGHWARECPTGGGRGRGMRSRGRGGFTSDRGFQFVSSSLPDICYRCGESGHLAKDCDLQEDACYNCGRGGHIAKDCKEPKREREQCCYNCGKPGHLARDCDHADEQKCYSCGEFGHIQKDCTKVKCYRCGETGHVAINCSKTSEVNCYRCGESGHLARECTIEATA
- 3xMBT/D355N UNC Heavy (3×MBT domain of L3MBTL1): 1.05 log base 2
- 3xMBT/D355N UNC Light (3×MBT domain of L3MBTL1): 1.79 log base 2
- Relative to UNC0638 UNC Heavy (G9a and GLP): 0.51 log base 2
- Relative to UNC0638 UNC Light (G9a and GLP): 0.05 log base 2
- Relative to UNC0638 Average (G9a and GLP): 0.28 log base 2

Continued, in another order:

- Relative to UNC0638 UNC Heavy (G9a and GLP): 0.52 log base 2
- Relative to UNC0638 UNC Light (G9a and GLP): 0.06 log base 2
- Relative to UNC0638 Average (G9a and GLP): 0.29 log base 2
B3: ZNF598 (protein, UniProt Q86UK7 1-904, looked up)
E3 ubiquitin-protein ligase …: MAAAGGAEGRRAALEAAAAAAPERGGGSCVLCCGDLEATALGRCDHPVCYRCSTKMRVLCEQRYCAVCREELRQVVFGKKLPAFATIPIHQLQHEKKYDIYFADGKVYALYRQLLQHECPRCPELPPFSLFGDLEQHMRRQHELFCCRLCLQHLQIFTYERKWYSRKDLARHRMQGDPDDTSHRGHPLCKFCDERYLDNDELLKHLRRDHYFCHFCDSDGAQDYYSDYAYLREHFREKHFLCEEGRCSTEQFTHAFRTEIDLKAHRTACHSRSRAEARQNRHIDLQFSYAPRHSRRNEGVVGGEDYEEVDRYSRQGRVARAGTRGAQQSRRGSWRYKREEEDREVAAAVRASVAAQQQEEARRSEDQEEGGRPKKEEAAARGPEDPRGPRRSPRTQGEGPGPKETSTNGPVSQEAFSVTGPAAPGCVGVPGALPPPSPKLKDEDFPSLSASTSSSCSTAATPGPVGLALPYAIPARGRSAFQEEDFPALVSSVPKPGTAPTSLVSAWNSSSSSKKVAQPPLSAQATGSGQPTRKAGKGSRGGRKGGPPFTQEEEEDGGPALQELLSTRPTGSVSSTLGLASIQPSKVGKKKKVGSEKPGTTLPQPPPATCPPGALQAPEAPASRAEGPVAVVVNGHTEGPAPARSAPKEPPGLPRPLGSFPCPTPQEDFPALGGPCPPRMPPPPGFSAVVLLKGTPPPPPPGLVPPISKPPPGFSGLLPSPHPACVPSPATTTTTKAPRLLPAPRAYLVPENFRERNLQLIQSIRDFLQSDEARFSEFKSHSGEFRQGLISAAQYYKSCRDLLGENFQKVFNELLVLLPDTAKQQELLSAHTDFCNREKPLSTKSKKNKKSAWQATTQQAGLDCRVCPTCQQVLAHGDASSHQALHAARDDDFPSLQAIARIIT
- 3xMBT/D355N UNC Heavy (3×MBT domain of L3MBTL1): 1.92 log base 2
- 3xMBT/D355N UNC Light (3×MBT domain of L3MBTL1): 3.58 log base 2

- Relative to UNC0638 UNC Heavy (G9a and GLP): 0.24 log base 2
- Relative to UNC0638 UNC Light (G9a and GLP): 0.33 log base 2
- Relative to UNC0638 Average (G9a and GLP): 0.29 log base 2
B4: RBM3 (protein, UniProt P98179 1-157, looked up)
RNA-binding protein 3: MSSEEGKLFVGGLNFNTDEQALEDHFSSFGPISEVVVVKDRETQRSRGFGFITFTNPEHASVAMRAMNGESLDGRQIRVDHAGKSARGTRGGGFGAHGRGRSYSRGGGDQGYGSGRYYDSRPGGYGYGYGRSRDYNGRNQGGYDRYSGGNYRDNYDN
- 3xMBT/D355N UNC Heavy (3×MBT domain of L3MBTL1): 3.49 log base 2
- 3xMBT/D355N UNC Light (3×MBT domain of L3MBTL1): 3.25 log base 2
